Entries after “also recorded” stand apart in the source; their conditions may differ. Read-outs that look alike come from different tables or passages of the source.
Assays:
[1] = target: IgE antibodies of the allergic patient serum pool Bor 18/100 (20 donors); assay: EAST inhibition, serum pool Bor 18/100
[2] = system: Phl p 5b-reactive T cell clones (TCCs) from allergic patients; assay: Proliferative reaction of Phl p 5b-reactive T cell clones ([3H]-thymidine incorporation); format: cell-based, human; settings: final concentration 0.3 μM
Experimental: (§1) 40 ml of heparinized blood were obtained from each patient. Peripheral mononuclear cells (PBMC) were then isolated from this blood sample by means of the customary method using density gradient centrifugation. Analogous cell isolations were carried out at a later stage when it was necessary to obtain irradiated autologous antigen-presenting cells (APC) for characterizing the TCL and TCC further. After the PBMC had been counted, TCL which reacted to group 5 allergens in vitro were established as follows and as has already been described in detail elsewhere (Lit. 1): in each well of 24-well microculture plates, from 1.5 to 2.0×10^6 PBMC in 1 ml of culture medium (UltraCulture) were stimulated for 7 days in the added presence of natural Phl p5 allergens (in each case 10 μg/well) which had been purified by immunoaffinity chromatography. A total of from 8 to 10 of these cultures were set up. The isolation of Phl p5 by means of immunoaffinity chromatography has been described in detail (Lit. 2). At the end of the 7 days of culture, IL-2 (from 10 to 20 IU/well) was added to the cell cultures for a further 5 to 7 days. All the individual cultures were then pooled and the T cell blasts were enriched by means of density gradient centrifugation; the TCL which were obtained were then tested in a specific lymphocyte proliferation test (see Lit. 1 as well). For this, 2×10^4/ml TCL blasts were in each case cultured with 5×10^4/ml irradiated autologous APCs in triplicate samples in 96-well microculture plates. 10-20 μg of Phl p5 allergen were added as the specific antigen stimulus. After 56 hours of incubation, ^3H-labelled thymidine (1 μCi/well) was pipetted into the microcultures. After a further 16 hours, the radioactivity which had been incorporated into the proliferating T cell blasts was measured in a beta counter (Matrix 96). The results were calculated, as the arithmetic mean of the multiple samples, in counts per minute (cpm). The criterion for the quality of the TCL was the stimulation index, which was obtained by relating the cpm values with Phl p5 addition to those without Phl p5 addition.
After a TCL had been cloned (see below), the specificity of the isolated TCCs were determined as has just been described. Stimulation indices of at least 5 were rated as being positive for the TCCs. The determination of T cell epitopes for defining the T cell-reactive regions on group 5 allergens was also carried out using specific proliferation tests, with 1-2 μg of synthesized dodecapeptide/ml being used for this purpose in each case (see below).
The reactivity of the recombinant Ph1 p 5b mutants was tested on established T cell clones (TCCs) of known specificity. The TCCs derive from patients who are allergic to grass pollen (see Ex. 1) and are directed against the T cell-reactive regions A (FIG. 7), B (FIG. 8) and C (FIG. 9). The T cell reactivity was measured by stimulating the clones to proliferate.

[3] = system: Phl p 5b-reactive T cell lines (TCLs) from allergic patients; assay: Proliferative reaction of Phl p 5b-reactive oligoclonal T cell lines ([3H]-thymidine incorporation); format: cell-based, human
Experimental: In the second phase, oligoclonal T cell lines, which have been established by repeated stimulation with the relevant allergens, are employed for the testing. Once again, only those modified recombinant allergens which at least give rise to a stimulation index (SI) of 50% of the SI of the wild type are taken into consideration.
as §1
The oligoclonal T cell lines (TCLs) from 8 patients who were allergic to grass pollen (see Ex. 1) were established by repeated activation with natural Ph1 p 5b (a+b) or recombinant rPh1 p 5b or 5a+5b.
The proliferative reaction of these TCLs was tested using the rPh1 p 5b mutants (FIG. 10).

[4] = target: IgE antibodies of the individual allergic patient serum II/12; assay: EAST inhibition, individual serum II/12
[5] = system: IgE antibodies of allergic patients; assay: EAST inhibition test (IgE reactivity / allergenicity); format: binding, human; settings: for IC50: read-out: Inhibition value 50% (concentration of the inhibitor at 50% inhibition); for Allergenic potency (Prel) 25%: relative to native Phl p 5b at 25% inhibition; for Allergenic potency (Prel) 50%: relative to native Phl p 5b at 50% inhibition
Experimental: The effects of the induced mutations on the allergenicity, i.e. the ability to bind to the IgE antibodies of allergic patients, of the modified recombinant allergens is determined qualitatively and quantitatively by means of the EAST inhibition test. […] The extent of the immunochemical relatedness (cross reactivity) can also be quantified. This EAST inhibition test only takes the reaction with IgE antibodies into account.
The binding of the allergens by the IgE antibodies is the basic prerequisite for the allergen-specific activation of the effector cells (mast cells, basophils, inter alia) in type I allergy. The allergen-specific inhibition of the enzyme/allergen sorbent test (EAST) is the best means for qualitatively and quantitatively recording the binding of the allergens to IgE anti-bodies. The EAST inhibition test is carried out as follows. Microtitre plates are coated with allergen (natural or recombinant Ph1 p 5 or Ph1 p 5b) (1 μg/ml). After the unbound allergen molecules have been removed by washing, non-specific plastic binding sites are blocked with bovine serum albumin (0.5%). […] from allergic patients, as a representative pool of 10-30 donors or as an individual serum, is incubated, in a suitable dilution, with the allergen-coated microtritre plates. The bound allergen-specific IgE antibodies are quantified using enzyme-coupled anti-IgE antibodies (e.g. alk. phosphatase-a-IgE antibodies). This binding is inhibited by soluble allergen or the substance to be tested (allergen mutants) in dependence on the concentration. The inhibition curve obtained with the purified natural allergen Ph1 p 5b is used as the reference.

[6] = target: IgE antibodies of the individual allergic patient serum II/3; assay: EAST inhibition, individual serum II/3
[7] = primary stimulator n Phl p 5, secondary activator 0.3 μM
[8] = primary stimulator r Phl p 5b, secondary activator 0.3 μM
[9] = allergic patient serum pool Bor 18/100
[10] = allergic patient serum pool We 6/97
[11] = individual allergic patient serum II/3
[12] = individual allergic patient serum II/12
[13] = individual allergic patient serum II/17

- IC50 [1]: 4.1 µM
- allergenic potency (Prel) at 25% inhibition (relative to native Phl p 5b) [1]: 0.028
- allergenic potency (Prel) at 50% inhibition (relative to native Phl p 5b) [1]: 0.0001
- inhibition value (inhibitor concentration at 25% inhibition) [1]: 1.2e-09 mol/L
- IC50 [4]: 100 µM
- allergenic potency (Prel) at 25% inhibition (relative to native Phl p 5b) [4]: 0.012
- allergenic potency (Prel) at 50% inhibition (relative to native Phl p 5b) [4]: 5.7e-05
- inhibition value (inhibitor concentration at 25% inhibition) [4]: 4.5e-09 mol/L
- IC50 [5, 9]: 4.1 µM
- IC50 [5, 10]: 0.029 µM
- IC50 [5, 11]: 32000 µM
- IC50 [5, 12]: 100 µM
- IC50 [5, 13]: 0.05 µM
- IC50 [6]: 32000 µM
- allergenic potency (Prel) at 25% inhibition (relative to native Phl p 5b) [6]: 0.0004
- allergenic potency (Prel) at 50% inhibition (relative to native Phl p 5b) [6]: 1.8e-07
- inhibition value (inhibitor concentration at 25% inhibition) [6]: 1.1e-06 mol/L
B1: rPhl p 5b deletion mutant DM3 (deletion A154-T177, A220T) (protein)
chain: ADAGYAPATPAAAGAAAGKATTEEQKLIEDINVGFKAAVAAAASVPAADKFKTFEAAFTSSSKAAAAKAPGLVPKLDAAYSVAYKAAVGATPEAKFDSFVASLTEALRVIAGALEVHAVKPVTEEPGMAKIPAGELQIIDKIDAAFKVAATAAGGAYDTYKCIPSLEAAVKQAYAATVAAAPQVKYAVFEAALTKTITAMSEVQKVSQPATGAATVAAGAATTAAGAASGAATVAAGGYKV
- Incorporation of [3H]-thymidine into TCC JR 13 (stimulation index class) ([2]; T cell-reactive region A): +++ (>10 (+++))
- Incorporation of [3H]-thymidine into TCC JR 15 (stimulation index class) ([2]; T cell-reactive region A): +++ (>10 (+++))
- Incorporation of [3H]-thymidine into TCC DW8 (stimulation index class) ([2]; T cell-reactive region B): + (1-2 (+))
- Incorporation of [3H]-thymidine into TCC UZH2 (stimulation index class) ([2]; T cell-reactive region B): +++ (>10 (+++))
- Incorporation of [3H]-thymidine, stimulation index SI, 1st exp. ([2]; T cell-reactive region C): 9.8
- Incorporation of [3H]-thymidine, stimulation index SI, 2nd exp. ([2]; T cell-reactive region C): 6.9
- Incorporation of [3H]-thymidine, stimulation index SI, 3rd exp. ([2]; T cell-reactive region C): 4.4
- Incorporation of [3H]-thymidine, stimulation index class (last column, no head) ([2]; T cell-reactive region C): ++ (5-10 (++))
- Proliferative reaction of TCLs (in words) ([3]; TCLs from 8 patients allergic to grass pollen): strong specific stimulation with most of the TCLs
- Incorporation of [3H]-thymidine into TCL 2 Eic (stimulation index class) [3, 7]: + (1-2 (+))
- Incorporation of [3H]-thymidine into TCL 4 Mer (stimulation index class) [3, 7]: ++ (5-10 (++))
- Incorporation of [3H]-thymidine into TCL 5 17.4 (stimulation index class) ([3]; primary stimulator r Phl p 5, secondary activator 0.3 μM): ++ (5-10 (++))
- Incorporation of [3H]-thymidine into TCL 6 Mah (stimulation index class) ([3]; primary stimulator r Phl p 5a, r Phl p 5b, secondary activator 0.3 μM): +++ (>10 (+++))
- Incorporation of [3H]-thymidine into TCL 7 19.2 (stimulation index class) [3, 8]: +++ (>10 (+++))
- Incorporation of [3H]-thymidine into TCL 8 20.1 (stimulation index class) [3, 8]: +++ (>10 (+++))
- Allergenicity / IgE reactivity, overall assessment (in words) ([5]; all serum pools and individual sera, Prel values): marked reduction in allergenicity; also recorded: greatly reduced, it is still detectable
- Inhibition value 25% (concentration of the inhibitor at 25% inhibition) [5, 9]: 1.2e-09 mol/L
- Inhibition value 25% (concentration of the inhibitor at 25% inhibition) [5, 10]: 5.1e-09 mol/L
- Inhibition value 25% (concentration of the inhibitor at 25% inhibition) [5, 11]: 1.1e-06 mol/L
- Inhibition value 25% (concentration of the inhibitor at 25% inhibition) [5, 12]: 4.5e-09 mol/L
- Inhibition value 25% (concentration of the inhibitor at 25% inhibition) [5, 13]: 5.6e-09 mol/L
- Allergenic potency (Prel) 25% ([5]; individual serum II/3): 0.0004
- Allergenic potency (Prel) 25% ([5]; individual serum II/12): 0.012
- Allergenic potency (Prel) 25% ([5]; individual serum II/17): 0.038
- Allergenic potency (Prel) 25% ([5]; serum pool Bor 18/100): 0.028
- Allergenic potency (Prel) 25% ([5]; serum pool We 6/97): 0.099
- Allergenic potency (Prel) 50% ([5]; individual serum II/3): 1.8 × 10^−7
- Allergenic potency (Prel) 50% ([5]; individual serum II/12): 5.7 × 10^−5
- Allergenic potency (Prel) 50% ([5]; individual serum II/17): 0.0005
- Allergenic potency (Prel) 50% ([5]; serum pool Bor 18/100): 0.0001
- Allergenic potency (Prel) 50% ([5]; serum pool We 6/97): 0.0020
- EAST inhibition curve / inhibitory effect (in words) ([5]; serum pool Bor 18/100 (20 donors), FIG. 1): markedly decreased inhibitory effect
- Allergenicity from EAST inhibition curves (in words) ([5]; serum pool We 6/97 and individual sera II3, II12, II17, FIGS. 2-5): greatly reduced allergenicity
